These results are taken from article PMC5531659, “Small molecule perturbation of the CAND1-Cullin1-ubiquitin cycle stabilizes p53 and triggers Epstein-Barr virus reactivation” (PLoS Pathogens, 2017).

This test deals with T1, Cullin 1 (human (endogenous in Mutu I and 293T), UniProt Q13616 1-776).
T1 construct: Cullin 1, human, endogenous protein of Mutu I and 293T cells; Neddylated and deneddylated forms are seen on blots; also called Cul1; Cul 1; source: endogenous, Mutu I lysate; endogenous, 293T lysate
T1 sequence (Q13616 whole entry): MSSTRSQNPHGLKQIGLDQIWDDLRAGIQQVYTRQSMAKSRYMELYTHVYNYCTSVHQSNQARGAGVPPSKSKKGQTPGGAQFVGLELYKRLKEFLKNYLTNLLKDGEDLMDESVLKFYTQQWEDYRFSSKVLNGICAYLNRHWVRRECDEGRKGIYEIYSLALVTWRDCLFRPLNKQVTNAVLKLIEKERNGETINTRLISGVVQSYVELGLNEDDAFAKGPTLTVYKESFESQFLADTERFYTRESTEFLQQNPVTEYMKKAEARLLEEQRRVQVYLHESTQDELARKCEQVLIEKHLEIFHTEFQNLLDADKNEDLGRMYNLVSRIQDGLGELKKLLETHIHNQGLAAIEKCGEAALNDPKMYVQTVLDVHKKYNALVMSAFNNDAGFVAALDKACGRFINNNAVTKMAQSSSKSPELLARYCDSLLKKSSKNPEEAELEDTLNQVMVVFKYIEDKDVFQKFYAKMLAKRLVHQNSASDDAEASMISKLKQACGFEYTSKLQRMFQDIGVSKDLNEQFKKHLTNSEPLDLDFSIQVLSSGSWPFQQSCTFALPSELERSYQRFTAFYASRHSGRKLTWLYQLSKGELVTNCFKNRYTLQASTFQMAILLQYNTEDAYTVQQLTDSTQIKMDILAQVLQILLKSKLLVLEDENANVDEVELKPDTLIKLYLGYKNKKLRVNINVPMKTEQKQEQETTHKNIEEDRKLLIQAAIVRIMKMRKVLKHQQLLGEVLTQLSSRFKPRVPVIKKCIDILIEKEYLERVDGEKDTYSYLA
Kind of test: co-IP; Mutu I total cell lysates (cells treated with DMSO or C60 for 48 hrs); IP with antibody to Cullin 1, CAND1 or IgG on protein A beads in SDS-free lysis buffer (50 mM Tris-HCl pH 7.6, 120 mM NaCl, 0.1% NP40, 1 mM EDTA), overnight 4°C; Western blot for Cullin 1 or CAND1. The following applies: partners not purified. (A western blot detects proteins with antibodies after separation by electrophoresis.)

B1: Cullin-associated and neddylation-dissociated 1 (CAND1) (natural protein, human (endogenous in Mutu I and 293T), UniProt Q86VP6 1-1230, looked up)
chain: MASASYHISNLLEKMTSSDKDFRFMATNDLMTELQKDSIKLDDDSERKVVKMILKLLEDKNGEVQNLAVKCLGPLVSKVKEYQVETIVDTLCTNMLSDKEQLRDISSIGLKTVIGELPPASSGSALAANVCKKITGRLTSAIAKQEDVSVQLEALDIMADMLSRQGGLLVNFHPSILTCLLPQLTSPRLAVRKRTIIALGHLVMSCGNIVFVDLIEHLLSELSKNDSMSTTRTYIQCIAAISRQAGHRIGEYLEKIIPLVVKFCNVDDDELREYCIQAFESFVRRCPKEVYPHVSTIINICLKYLTYDPNYNYDDEDEDENAMDADGGDDDDQGSDDEYSDDDDMSWKVRRAAAKCLDAVVSTRHEMLPEFYKTVSPALISRFKEREENVKADVFHAYLSLLKQTRPVQSWLCDPDAMEQGETPLTMLQSQVPNIVKALHKQMKEKSVKTRQCCFNMLTELVNVLPGALTQHIPVLVPGIIFSLNDKSSSSNLKIDALSCLYVILCNHSPQVFHPHVQALVPPVVACVGDPFYKITSEALLVTQQLVKVIRPLDQPSSFDATPYIKDLFTCTIKRLKAADIDQEVKERAISCMGQIICNLGDNLGSDLPNTLQIFLERLKNEITRLTTVKALTLIAGSPLKIDLRPVLGEGVPILASFLRKNQRALKLGTLSALDILIKNYSDSLTAAMIDAVLDELPPLISESDMHVSQMAISFLTTLAKVYPSSLSKISGSILNELIGLVRSPLLQGGALSAMLDFFQALVVTGTNNLGYMDLLRMLTGPVYSQSTALTHKQSYYSIAKCVAALTRACPKEGPAVVGQFIQDVKNSRSTDSIRLLALLSLGEVGHHIDLSGQLELKSVILEAFSSPSEEVKSAASYALGSISVGNLPEYLPFVLQEITSQPKRQYLLLHSLKEIISSASVVGLKPYVENIWALLLKHCECAEEGTRNVVAECLGKLTLIDPETLLPRLKGYLISGSSYARSSVVTAVKFTISDHPQPIDPLLKNCIGDFLKTLEDPDLNVRRVALVTFNSAAHNKPSLIRDLLDTVLPHLYNETKVRKELIREVEMGPFKHTVDDGLDIRKAAFECMYTLLDSCLDRLDIFEFLNHVEDGLKDHYDIKMLTFLMLVRLSTLCPSAVLQRLDRLVEPLRATCTTKVKANSVKQEFEKQDELKRSAMRAVAALLTIPEAEKSPLMSEFQSQISSNPELAAIFESIQKDSSSTNLESMDTS
notes: CAND1, human, endogenous protein of Mutu I and 293T cells; also called TIP120A; source: endogenous, Mutu I lysate; endogenous, 293T lysate
Consider B1, for which the “fold decrease of the association in C60-treated against DMSO-treated cells” value was about 5 fold.
